The assay addresses T1, Elongator complex purified from yeast cells using Elp5-TAP (S. cerevisiae (endogenous in W303 yeast …, UniProt Q06706 1-1349; P42935 1-788; Q02908 1-557; Q02884 1-456; P38874 1-309; Q04868 …).
T1 construct: Elp1, S. cerevisiae; Elp2, S. cerevisiae; Elp3 (Kat9), S. cerevisiae; Elp4, S. cerevisiae; Elp5, S. cerevisiae; Elp6, S. cerevisiae; Six-subunit complex; also called Elp3 complex; Elp1-Elp6 complex; copies: + + + + +
Description: co-IP; in vitro: 2.5 µg recombinant PCNA incubated with different amounts of Elp3 complex (purified with Elp5-TAP) in TBS with 0.01% NP-40 at 4°C for 2 hrs; precipitated with polyclonal anti-PCNA antibodies and Protein G Sepharose; Western blot for PCNA and CBP; pre-bleed sera as negative control. Conditions: both partners purified.

The text below walks through data of paper PMC2757915, “The Elongator Complex Interacts with PCNA and Modulates Transcriptional Silencing and Sensitivity to DNA Damage Agents” (PLoS Genetics, 2009).

B1: recombinant PCNA (natural protein, S. cerevisiae, UniProt P15873 1-258, looked up)
chain: MLEAKFEEASLFKRIIDGFKDCVQLVNFQCKEDGIIAQAVDDSRVLLVSLEIGVEAFQEYRCDHPVTLGMDLTSLSKILRCGNNTDTLTLIADNTPDSIILLFEDTKKDRIAEYSLKLMDIDADFLKIEELQYDSTLSLPSSEFSKIVRDLSQLSDSINIMITKETIKFVADGDIGSGSVIIKPFVDMEHPETSIKLEMDQPVDLTFGAKYLLDIIKGSSLSDRVGIRLSSEAPALFQFDLKSGFLQFFLAPKFNDEE
notes: PCNA, encoded by POL30, S. cerevisiae; expressed from a plasmid in E. coli; No tag is named; purified by conventional chromatography; source: E. coli BL21(DE3), purified (Q-Sepharose, hydroxyapatite, Superdex 200)
Take B1: the binding result is given as “binds”.
